Measured values as given in paper PMC7144943.
pKd: −log10 of the molar value.

How the values were obtained:
[1] = system: Blanks wild-type (cDNA variant); test: fluorescence anisotropy; details: n=3; assay buffer not given (as in ref 39); protein final buffer 100 mM KAc pH 7.4, 10 mM HEPES pH 7.4, 2 mM MgAc, 5 mM DTT (protein diluted 1:3 into it, then …)
Blanks dsRBD2 mutant = test: fluorescence anisotropy; details: n=3; assay buffer not given (as in ref 39); protein final buffer 100 mM KAc pH 7.4, 10 mM HEPES pH 7.4, 2 mM MgAc, 5 mM DTT (protein diluted 1:3 into it, then …)

23 nt ds siRNA (21 bp)
pKd [1]: 6.75 | pKd (Blanks dsRBD2 mutant): 6.18
